Measured values from patent CN106008708A.

Biological target: 重组HBx蛋白 (B基因型HBx, GenBank NO.AF100309.1, 大肠杆菌表达) (乙型肝炎病毒(HBV) B基因型)
Assay: ELISA, serial dilution of purified antibody on plates coated with immunogen HBx; positive threshold 0.3

B1: HBx单克隆抗体KY01 (antibody, mouse IgG1, V domains shown)
VH: EVQLQQSGPELVRPGASVKMSCKASGYTFTSYWMHWLKQRPGQGLEWIGMIDPSNSETRLNQKFKDKATLNVDKSSNTAYMQLSSLTSEDSAVYYCAYDGAYWGQGTLVTVSE
VL: DIVLTQSPASLAVSLGQRATISCRASESVDSYGNSFIHWYQQKPGQPPKLLIYRASNLESGIPARFSGSGSRTDFTLTINPVEADDVATYFCQQSNEDPRTFGGGTKLEIKR
抗体滴度(效价) (dilution factor (1:n)): 2.5e+06
